Experimental data: US20050282743A1, “Molecular interactions in cells” (Arbor Vita Corporation, priority 2001, published 2005)
Where two headings read alike, the source gives them in different places.

What was measured:
Test in all cases: G' assay
[1] = target: T1, GST-PDZK1 PDZ domains 2, 3, 4, Q5T2W1
T1 chain: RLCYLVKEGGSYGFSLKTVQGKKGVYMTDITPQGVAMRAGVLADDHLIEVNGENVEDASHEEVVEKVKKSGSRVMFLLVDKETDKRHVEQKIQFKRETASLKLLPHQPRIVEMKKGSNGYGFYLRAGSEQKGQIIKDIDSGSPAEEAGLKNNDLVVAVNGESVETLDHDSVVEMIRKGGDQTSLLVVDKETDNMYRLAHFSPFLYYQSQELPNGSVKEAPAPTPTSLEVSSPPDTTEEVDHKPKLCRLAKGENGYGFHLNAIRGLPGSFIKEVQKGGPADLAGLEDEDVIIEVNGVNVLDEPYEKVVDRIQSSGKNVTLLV

[2] = target: T2, GST-KIAA1095 PDZ domain 1 (Homo sapiens (Human)), Q9UPQ7
T2 chain: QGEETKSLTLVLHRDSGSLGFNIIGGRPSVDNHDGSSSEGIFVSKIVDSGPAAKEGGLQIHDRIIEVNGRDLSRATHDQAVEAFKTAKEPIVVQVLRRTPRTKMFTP

[3] = target: T3, GST-Atrophin-1 Interacting Protein PDZ domain 6 (Rattus norvegicus (Rat)), O88382
T3 chain: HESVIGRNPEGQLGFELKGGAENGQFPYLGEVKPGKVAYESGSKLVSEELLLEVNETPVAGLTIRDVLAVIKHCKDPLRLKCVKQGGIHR

[4] = target: T4, GST-SITAC-18 PDZ domain 2 (Homo sapiens (Human)), Q9H190
T4 chain: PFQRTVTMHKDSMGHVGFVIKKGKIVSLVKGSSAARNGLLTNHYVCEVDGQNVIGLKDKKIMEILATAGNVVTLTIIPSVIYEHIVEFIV

[5] = target: T5, GST-DLG5 PDZ domain 2 (Homo sapiens (Human)), Q8TDM6
T5 chain: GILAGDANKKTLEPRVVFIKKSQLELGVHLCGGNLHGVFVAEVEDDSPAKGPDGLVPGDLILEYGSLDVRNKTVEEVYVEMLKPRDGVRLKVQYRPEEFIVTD

[6] = target: T6, GST-MUPP1 PDZ domain 8 (Homo sapiens (Human)), O75970
T6 chain: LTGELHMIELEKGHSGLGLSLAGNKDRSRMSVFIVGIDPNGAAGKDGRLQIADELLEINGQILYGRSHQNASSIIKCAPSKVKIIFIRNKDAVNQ

[7] = target: T7, GST-KIAA1284 PDZ domain 1 (Homo sapiens (Human)), Q9ULD6
T7 chain: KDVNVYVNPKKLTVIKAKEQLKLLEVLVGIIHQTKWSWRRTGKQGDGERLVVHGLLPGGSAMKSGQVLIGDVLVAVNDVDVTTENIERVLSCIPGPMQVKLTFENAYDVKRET

[8] = target: T8, GST-MUPP1 PDZ domain 6 (Homo sapiens (Human)), O75970
T8 chain: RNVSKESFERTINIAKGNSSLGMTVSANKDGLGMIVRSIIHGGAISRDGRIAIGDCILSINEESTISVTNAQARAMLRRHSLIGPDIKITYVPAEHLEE

[9] = target: T9, GST-SITAC-18 PDZ domain 1 (Homo sapiens (Human)), Q9H190
T9 chain: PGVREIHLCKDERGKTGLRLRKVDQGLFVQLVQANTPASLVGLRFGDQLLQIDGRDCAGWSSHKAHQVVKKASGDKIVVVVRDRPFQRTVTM

[10] = target: T10, GST-GRIP 1 PDZ domain 5 (Homo sapiens (Human)), Q9Y3R0
T10 chain: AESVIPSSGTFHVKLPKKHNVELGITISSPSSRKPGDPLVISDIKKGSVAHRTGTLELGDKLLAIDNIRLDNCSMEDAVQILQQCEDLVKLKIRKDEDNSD

[11] = target: T11, GST-MUPP1 PDZ domain 1 (Homo sapiens (Human)), O75970
T11 chain: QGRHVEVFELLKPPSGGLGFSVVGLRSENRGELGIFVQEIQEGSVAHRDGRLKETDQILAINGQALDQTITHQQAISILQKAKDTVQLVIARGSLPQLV

[12] = target: T12, GST-MUPP1 PDZ domain 2 (Homo sapiens (Human)), O75970
T12 chain: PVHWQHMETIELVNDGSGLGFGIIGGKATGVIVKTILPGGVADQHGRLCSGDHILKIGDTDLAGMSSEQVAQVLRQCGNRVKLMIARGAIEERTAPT

[13] = target: T13, GST-DVL2 PDZ domain 1 (Homo sapiens (Human)), O14641
T13 chain: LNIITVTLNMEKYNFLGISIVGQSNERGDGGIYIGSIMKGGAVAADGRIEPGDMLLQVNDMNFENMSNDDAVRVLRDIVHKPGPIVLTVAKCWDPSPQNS

[14] = target: GST-DLG2 PDZ domain 1 (Homo sapiens (Human)), Q15700
[15] = target: T14, GST-PSD95 PDZ domain 3 (Homo sapiens)
T14 chain: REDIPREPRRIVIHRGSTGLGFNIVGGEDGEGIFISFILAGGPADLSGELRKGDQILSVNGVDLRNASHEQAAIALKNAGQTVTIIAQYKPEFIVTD

[16] = target: T15, GST-LIMK1 PDZ domain 1 (Homo sapiens (Human)), P53667
T15 chain: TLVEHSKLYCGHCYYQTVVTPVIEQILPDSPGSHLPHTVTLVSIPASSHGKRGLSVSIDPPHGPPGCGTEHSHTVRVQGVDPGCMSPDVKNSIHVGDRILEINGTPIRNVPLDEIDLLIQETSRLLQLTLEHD

[17] = target: T16, GST-Connector Enhancer PDZ domain 1 (Homo sapiens (Human)), Q969H4
T16 chain: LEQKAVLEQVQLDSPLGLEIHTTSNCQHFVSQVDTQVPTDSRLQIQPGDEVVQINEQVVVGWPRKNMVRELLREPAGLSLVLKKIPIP
Note: key of the grades not given here.

PIPAGGCTFSGIFPTLTSPL (modifications not checked) [KIA 1481]
Classification [1]: 2 A450 class | Classification [2]: 1 A450 class

HDFRRAFKKILARGDRKRIV (modifications not checked) [alpha-2A Adrenergic receptor]
Classification [3]: 1 A450 class | Classification [4]: 4 A450 class | Classification [5]: 1 A450 class | Classification [6]: 1 A450 class | Classification [7]: 1 A450 class | Classification [8]: 2 A450 class | Classification [9]: 4 A450 class

ILNSIQVMRAQMNQIQSVEV (modifications not checked) [ephrin B2]
Classification [3]: 1 A450 class | Classification [4]: 3 A450 class | Classification [5]: 1 A450 class | Classification [7]: 1 A450 class | Classification [8]: 2 A450 class | Classification [10]: 1 A450 class | Classification [9]: 3 A450 class

ELLQFCRTPNPALKNGQYWV (modifications not checked) [CSPG4 (chondroitin sulfae proteoglycan 4, melanoma-associated)]
Classification [11]: 2 A450 class | Classification [6]: 2 A450 class | Classification [12]: 5 A450 class | Classification [13]: 5 A450 class | Classification [10]: 1 A450 class

TQGFPGPATWRRISSLESEV (modifications not checked) [NMDA Glutamate Receptor 2C (cysteine-free)]
Classification [14]: 4 A450 class | Classification [15]: 2 A450 class | Classification [16]: 1 A450 class | Classification [2]: 1 A450 class

KTMPAAMYRLLTAQEQPVYI (modifications not checked) [MINT-1]
Classification [11]: 1 A450 class | Classification [12]: 1 A450 class | Classification [13]: 2 A450 class

VGTLLLERVIFPSVKIATLV (modifications not checked) [AdenoE4 typ9]
Classification [17]: 3 A450 class

AWDDSARAAGGQGLHVTAL (modifications not checked) [LPAP]
Classification [1]: 3 A450 class

QISPGGLEPPSEKHFRETEV (modifications not checked) [TAX]
Classification [14]: 2 A450 class | Classification ([17]; remark: other sources report otherwise): 1 A450 class | Classification [15]: 1 A450 class | Classification [16]: 1 A450 class
